Experiment: yeast display, Sf9 membrane polyspecificity reagent, FACS + sequencing; frameworks hold sequencing errors
How it was run: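 Synthetic nanobody libraries on Saccharomyces cerevisiae BJ5465 were galactose-induced for 36–48 hours, stained 1 hour at 4 °C with 10% biotinylated, detergent-solubilized Sf9 membrane reagent and enriched on streptavidin microbeads. FACS then separated cells into low and high (top ~1%) gates by anti-HA (expression) and streptavidin (reagent binding) fluorescence. Genes were colony-PCR amplified, MiSeq 2 × 250 sequenced and CDR-length filtered. A clone's polyreactivity label is that of its gate of origin.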

Sequence | polyreactivity (PSR sort gate)
QVQIVESGGGLVQAGGSLRLTCAASGRTFYGNAMGWYRQAPGKERDLVADISSRSSSTSYADSVKGRFTISRDNAKYSVYFQMNSLKPEDTAVYYCATRYGYRTWYGYNYWGQGTQVTVSS | high polyreactivity
QVQIVESGGGLVQAGGSLRLTCAASGSIFPDYAMGWYRQAPGKERELVASISWDGGSTYYADSVKGRFTISRDNAKNTVYLQMNSLKPEDTAVYYCATELLVGGGFTVDYWGQGTQVTVSS | low polyreactivity
QVQIVESGGGLVQAGGSLRVSCAASGRTFSWYAMGWYRQARGKEWEIVAAIRWSGSSTYYADSVKGRFTISRDNAKNTVYLQMNSLKPEDTAVYYCAVAAGIPQRRYYYWGQGTQVTVSS | high polyreactivity
QVQIVESGGGLVQAGGSLRVSCAPSGNISYSYDMGWYRQAPGKERELVASITESGGSTYYADSVKGRFTISRDNAKNTVYFQMNILKPEDTAVYYCYWGHGTQVTVSS | low polyreactivity
QVQIVESGGGLVQAGGSLSLICAASGFIIDDNTMGWYRQAPGKERELVAAISYSAGSTYYADSVKGRFTISRDNAKNTVFLQMISVKTEDTAVYYCAAQHYWVTSYLSSYDYWGQGTQVTVSS | low polyreactivity
QVQIVESGGGLVQAGGSLSLSCAASGRTFVLYVMGWYRQAPWKEREFVADINAGGGSTYYADSVKGRFTISRDNAKNTVYLQMNSLKPEDTAVYYCAATRDLGQLFRFGYWGQGTQVTVSS | low polyreactivity
QVQIVESGGGLVQARCSLRLSFSASGYTFNNYAKGWYRQAPGTERELVAAISSSGGSTYFADSVKGRFTISRDNAKNTVYVQMNSLKPEDTAVYYCAARPFGLGDYRGYYYWGQGTQVTVSS | low polyreactivity
QVQIVESGGGLVQEGGSLRLRCAASGFTFGYYRMGWYRQAPGKERELVAAISRSAGSTYYADSVKGRFTISRDNAKNTVYLQMNSLKPEDTAVYYCNAAVFRTEGGYSTFNYWGQGSQVTVSS | high polyreactivity
QVQIVESGGGVVQAGGILRLSCAASGYTFTVYGMGWYRQAPGKERELVARITWSGGTTRYADSVKGRFTISRDNAKNNVYLQMNSLKPEDTAVYYCAASYWRPKRYRYDYWGQGTQVTVSS | high polyreactivity
QVQIVESGGRLVQAGCSLRLSCAASGSTFKINAMGWYRQAPGKEWELVAVIRSRGTSTYYADSVKGRFTISRDNSKNTVYLQMNSLKPVDTAVYNCAAGRINGGDYWGQGTQVTVSS | high polyreactivity
QVQIVESGGVIVQAGGSLRLSCAASGRIISYYTMGWYRQAPGKERELVAAISVSSGRTYYADSVKGRFTISRDNAKNTVYLQMNSLKPEDTAVYYCDAKYLARSAYDYWGQGTQVTVSS | high polyreactivity
QVQIVESGPGLVQAGASLSLSCAASGSIFRPYAMGWYIQAPGKDRELVAAITWSGGRTYYADSVKGRFTISRDNAKNTVYLKMNSLKREDTAVYYCAADDSEGFDYWGQGNQVTVSS | high polyreactivity
QVQIVESGRGLVQAGGSLRLSCAPSGFTLGFFAMGWYRQAPGKERELVAAINWRGGSTYYADSVKVRFTISRDNAKNTVYLQMNSLKPEDTAVYYCNRVYRPSRYDYWGQGTQVTVSS | high polyreactivity
QVQIVESGVGLVQAGGSLRLSCAASGTIFARYAMGWYRQAPGKERELVAAISWRGGRTYYADSVKGRFTISRDNAKNTVYLQMNSLKPEVTAVYYCAARRQQRGANGGDYWGQGTQVTLSS | high polyreactivity
QVQIVESWGCLVQAGGSLRLSCAASVNIFNVNAMGWSRQAPRKEREFLAAITSGANSYYADSEKGRFTISRDNAKNSVFLQMNSLKPEDTAVYYCAAEDGSYYRRNRFYYWGQGTQVTVSS | high polyreactivity
QVQIVKSGGGLVQAGGSLRLSCAASGFIIPEYTMGWYRQAPGKERELVAAISGSGGSTYYADSVKGRFTISRDNAKNTVYLQMNSLIPEDTAVYYCIAPVYTADGYRYGSVRFGYWGQGTQVTVSS | low polyreactivity
QVQLAESGGCLVQAGGRLRLSCAASGSTFPHYAMGWYRQAPGKERELVAAISVRGGRTYYADSVKGRFTISRDNAKNNDSLQMNSLKPEDTAVYYCNKYYDVTKYGYWGQGTQVTVSS | high polyreactivity
QVQLAESGGGLVQAGGSLRLSCAASGIIFYFYAMGWYRQAPGKERELVAAINSSSGRTYYADSVKGRFTISRDNAKNSVYLQMNSLKPEDTAVYYCAAYYYGSYDGTPYDYWGQGTQVTVSS | low polyreactivity
QVQLAESGGGLVQAGGSLRLSCAASGIIFYFYAMGWYRQAPGKERELVAAISGTGGRTYYADSVKGRFTISRDNAKNTVYLQMNSLKPEDTAVYYCNADDTPVPSIRFDYWGQGTQVTVSS | low polyreactivity
QVQLAESGGGLVQAGGSLRLSCAASGSTFVAYAMGWYRQAPGKERELVAAITRSGGSTYYADSVKGRFTISRDNAKNTVYLQMNSLKPEDTAVYYCAARHYRSRDGYWGQGTQVTVSS | high polyreactivity
QVQLEDSGGGLDQAGVSLRLSCAASGSTFLLYAMVGYRQAPGKERELVAAISRSSTSTYYADSVKGRFTISRDNAKNTVYLQMNSLKPEDTAVYYCAAVVTVQYSQPYDHWGQGTQVTVSS | high polyreactivity
QVQLEDSGGGLVQAGGSLRLSCAASGFIFGSYTMGWYRQAPGKERELVAVITWSGSSTYYADSVKGRFTISRDNAKYPVYLQMNSLKPEDTAVYYCNAVKFGGYDYWGQGTQVTVSS | high polyreactivity

Sequence | polyreactivity (PSR sort gate)
QVQLEDSGGGLVQAGGSLRLSCAASGFTFYSYAMGWYRQATGKERELVAAISWSGTRTYYADSVKGRFTISRDNAKNTVYLQMNSLKPEDTAVYYCAARGYRYGYGYWGQGTQVTVSS | high polyreactivity
QVQLEDSGGGLVQAGGSLRLSCAASGLIFLDYAMGCYRQAPGKERELVAAISRSGGRTYYADSVKGRFTISRDNAKNTVYLQMNIVKPEDTAVYYCNAYQSARKKATASTYDSWGQCTQVTVSS | high polyreactivity
QVQLEDSGGGLVQAGGSLRLSCAASGRTFNKYAMGWYRQAPGKERELVAAINTSGGSTYYADSVKGRFTISRDNAKNTVYLQMNSLKPEDTAVYYCAAQSRSVYGRSYGYWGQGTQVTVSS | high polyreactivity
QVQLEDSGGGLVQAGGSLRLSCAASGRTFTYYAMGWYRQAPGKERELVATISYSGGSTYYADSVKGRFTISRDNAKNTVYLQMNSLKPEDTAVYYCATSGSGPWWKLYYSGQGTQVTVSS | low polyreactivity
QVQLEDSGGGLVQAGGSLRLSCAASGSIIGSYAMGLYRQAPGKERELVAAISRRGGSTYYADSVKGRFTISRDNAKNTVYLQMNSLKPEDTAVYYCARRDYGVLNKGLGQEGDYWGQGTQVTVSS | low polyreactivity
QVQLEDSGGVLVQAGGSLRLSCAASGFIYRFYPMGWYRKAPGKERELVAGISSSGGSTYYADSVKGRFTISRDYAKNTVYLQMNSLKPEDTAVFYCNAKRSDQSYKTFNYWGQGTQVTVSS | low polyreactivity
QVQLEESAGGLVQAGGSLRLSCAASGIIFSGNAMGWYRQATGKERELVAAITLSGGSTYYADSVKGRFTISRDNAKNTVYLQMNSLKPEDTAVYYCNAVYDTIYSLRDIDTEYGSWGQGTQVTVSS | low polyreactivity
QVQLEESAGGLVQAGGSLRLSCAASGRIFVRNAMGWYRQAPGKERELVADITNGGSTNYADSVKGRFTISRDNAKNTVYLQMNSLKPEDTAVYYCAATYPYSWVYSGYYYWGHGTQVTVSS | low polyreactivity
QVQLEESAGGLVQAGGSLRLSCAASGYTFGRYAMGWYRQEPGKERELVAVITTGDSTYYADSVKGRFTISRDNAKNTVNLLMNSLKPEDTAVYYCAADGRLSRPFDYWGQGTQVTVSS | low polyreactivity
QVQLEESCGGLVQAGGSLRLSCAASGRTFRYYPMGWYRQAPGKERELVAAITTGSSTYYADSVKGRFTISRDNANNTVYLQMNSLKPEDTAVFYCNVFQGTRYGYWGQGTQVTVSS | low polyreactivity
QVQLEESGAGLVQAGGSLRLSCAASGSIFVRNAMAWYRHAPGKERELVAVITRSAGRTYYADSVKGRFTISRDNAKNTVYLQMNSLKPEDTAVYYCAASPSTPNKYGSWGQGTQVTVSS | high polyreactivity
QVQLEESGGCIVQAGGSHRLSCAASGRTFTLNAMGWYRQAPGKEREFVAAISNSGVRTYYADSVKGRFTISRDNAKNTVFLQMNSLKPEDTGVYYCARTYQVGDSIDDYWGQGTQVNVSS | low polyreactivity
QVQLEESGGCLVQAGGSLRLRCAASGRIVALNAMGWYRQAPGKERELVATIRCRGGATYYADSVKGRFTISRDNAKNTVYLQMNSLKPEDNAVYYCDAFTGNRRTYDYWGQGTQVTVSS | high polyreactivity
QVQLEESGGCLVQAGGSLRLSCAASGITFYGNVMGWYRQAPGKERELVAAISWSGGRTYYADSVKGRFTISRDNAKNTVSVQMNSLKPEDTAVDFCAAEGTTNRGVYASYDYWGQGTQVTVSS | low polyreactivity
QVQLEESGGGIVQAGGSLRLSCAASGRIFPYYAMGWYRQAPGKERALVAVISYSSGITYADSVKGRFTISRDNAKNTVYLQMNSLKPEDTAVYYCAADKWAFGATQYDYWGKGTQVTVSS | low polyreactivity
QVQLEESGGGLFQAGGSLRLSCAASGRTFRLYDMGWYRQAPGKERELVAAISKSGGSTYYADSVKGRFTISRDYAKNPVYVQMNSLKPEDTAVYYCAAGTRVCEYDYWGQGTQVTVSS | high polyreactivity
QVQLEESGGGLFQAGGSLRLSCAASGSTITRYAMGCYRQAPGKEREIVAVISRSGGSTYYADSVKGLFTISRDNAKNTVYLQINSLKPEDTAVYYCAAKYYGGRRSPYSYGYWGQGTQVTVSS | high polyreactivity
QVQLEESGGGLLQAGGSLRLSCAATGSTFVTYAMGWYRQAPGKERELVAAISSGGGNTYYADSVKGRFTISRDNAMNSVYLQMHSLKPEDTAVYLCAADNPRSEYDYWGQGTQVTVSA | high polyreactivity
QVQLEESGGGLLQAGGSLRLTCAASGFTFYYYAMGWYRLATGKERYLVAAISGGGGSTYYADSVKGRFTISRDNAKNTVYLPMNSMKPEDTAVYYCAAVGSWRYNYDYDYWGQGSQVTVSS | high polyreactivity
QVQLEESGGGLVHAGGSLRLICAASGSTFSTYAMRWYRQAPGKERELVARITRGGSTNYADSVKGRFTISRDNAMNTVYLQMNCLKPDDTAVYYFSAGIRSGRKYDYWGQGTQVTVSS | low polyreactivity
QVQLEESGGGLVKAGGSLRLSSAASGITIGIYLIGWYRQAPGTESEFVATISRSDDNTYYADSVMGRFTISRDNAKNTVYLQMNSLKPEDSAVYYCPADGVISAWYSSRDDYWGKGTQVTVSS | low polyreactivity
